# Measured values reported in patent US20240083958A1, “G PROTEIN PEPTIDOMIMETICS” (VRIJE UNIVERSITEIT BRUSSEL, priority 2020, published 2024).
# Read-outs that look alike come from different tables or passages of the source. Bridge positions count the residues as written; N and C are the ends. Square brackets hold non-standard residues; d marks the D form. S5 = C=CCCC[C@](C)(N)C(=O)O
# B1: compound 23 (peptide)
# peptide: Ac-FNECRDKIQRMHLRQYELL-OH
# B2: compound 6 (peptide)
# peptide: Ac-FNDCRD[S5]IQR[S5]HLRQYELL-OH
# modifications: bridges not given here
# B3: compound 25 (peptide)
# peptide: Ac-FN[S5]CRD[S5]IQRMHLRQYELL-OH
# modifications: bridges not given here
# B4: compound 73 (peptide)
# peptide: Ac-RRIFNDCRDIIQRMHLRQYELL-OH
# B5: compound 4 (peptide)
# peptide: FNDCRDEIQRKHLRQYELL
# HELM: PEPTIDE1{F.N.D.C.R.D.E.I.Q.R.K.H.L.R.Q.Y.E.L.L}$PEPTIDE1,PEPTIDE1,7:R3-11:R3$$$V2.0
# SMILES: CC[C@H](C)[C@@H]1NC(=O)[C@@H](NC(=O)[C@H](CC(=O)O)NC(=O)[C@H](CCCNC(=N)N)NC(=O)[C@H](CS)NC(=O)[C@H](CC(=O)O)NC(=O)[C@H](CC(N)=O)NC(=O)[C@@H](N)Cc2ccccc2)CCC(=O)NCCCC[C@@H](C(=O)N[C@@H](Cc2c[nH]cn2)C(=O)N[C@@H](CC(C)C)C(=O)N[C@@H](CCCNC(=N)N)C(=O)N[C@@H](CCC(N)=O)C(=O)N[C@@H](Cc2ccc(O)cc2)C(=O)N[C@@H](CCC(=O)O)C(=O)N[C@@H](CC(C)C)C(=O)N[C@@H](CC(C)C)C(=O)O)NC(=O)[C@H](CCCNC(=N)N)NC(=O)[C@H](CCC(N)=O)NC1=O
# B6: compound 7 (peptide)
# peptide: H-FNDCRD[S5]IQR[S5]HLRQYELL-OH
# modifications: staple 7-11
# SMILES: CC[C@H](C)[C@@H]1NC(=O)[C@@](C)(NC(=O)[C@H](CC(=O)O)NC(=O)[C@H](CCCNC(=N)N)NC(=O)[C@H](CS)NC(=O)[C@H](CC(=O)O)NC(=O)[C@H](CC(N)=O)NC(=O)[C@@H](N)Cc2ccccc2)CCCC=CCCC[C@@](C)(C(=O)N[C@@H](Cc2c[nH]cn2)C(=O)N[C@@H](CC(C)C)C(=O)N[C@@H](CCCNC(=N)N)C(=O)N[C@@H](CCC(N)=O)C(=O)N[C@@H](Cc2ccc(O)cc2)C(=O)N[C@@H](CCC(=O)O)C(=O)N[C@@H](CC(C)C)C(=O)N[C@@H](CC(C)C)C(=O)O)NC(=O)[C@H](CCCNC(=N)N)NC(=O)[C@H](CCC(N)=O)NC1=O
# B7: compound 84 (peptide)
# peptide: FNDCRDIIQRMHLRQYELX
# HELM: PEPTIDE1{[ac].F.N.D.C.R.D.I.I.Q.R.M.H.L.R.Q.Y.E.L.[Cha]}$$$$V2.0
# SMILES: CC[C@H](C)[C@H](NC(=O)[C@H](CC(=O)O)NC(=O)[C@H](CCCNC(=N)N)NC(=O)[C@H](CS)NC(=O)[C@H](CC(=O)O)NC(=O)[C@H](CC(N)=O)NC(=O)[C@H](Cc1ccccc1)NC(C)=O)C(=O)N[C@H](C(=O)N[C@@H](CCC(N)=O)C(=O)N[C@@H](CCCNC(=N)N)C(=O)N[C@@H](CCSC)C(=O)N[C@@H](Cc1c[nH]cn1)C(=O)N[C@@H](CC(C)C)C(=O)N[C@@H](CCCNC(=N)N)C(=O)N[C@@H](CCC(N)=O)C(=O)N[C@@H](Cc1ccc(O)cc1)C(=O)N[C@@H](CCC(=O)O)C(=O)N[C@@H](CC(C)C)C(=O)N[C@@H](CC1CCCCC1)C(=O)O)[C@@H](C)CC
# B8: compound 24 (peptide)
# peptide: FNECRDKIQRMHLRQYELL
# HELM: PEPTIDE1{[ac].F.N.E.C.R.D.K.I.Q.R.M.H.L.R.Q.Y.E.L.L}$PEPTIDE1,PEPTIDE1,4:R3-8:R3$$$V2.0
# SMILES: CC[C@H](C)[C@H](NC(=O)[C@@H]1CCCCNC(=O)CC[C@H](NC(=O)[C@H](CC(N)=O)NC(=O)[C@H](Cc2ccccc2)NC(C)=O)C(=O)N[C@@H](CS)C(=O)N[C@@H](CCCNC(=N)N)C(=O)N[C@@H](CC(=O)O)C(=O)N1)C(=O)N[C@@H](CCC(N)=O)C(=O)N[C@@H](CCCNC(=N)N)C(=O)N[C@@H](CCSC)C(=O)N[C@@H](Cc1c[nH]cn1)C(=O)N[C@@H](CC(C)C)C(=O)N[C@@H](CCCNC(=N)N)C(=O)N[C@@H](CCC(N)=O)C(=O)N[C@@H](Cc1ccc(O)cc1)C(=O)N[C@@H](CCC(=O)O)C(=O)N[C@@H](CC(C)C)C(=O)N[C@@H](CC(C)C)C(=O)O
# B9: compound 67 (peptide)
# peptide: RDIIQRMHLRQYEXL
# HELM: PEPTIDE1{[ac].R.D.I.I.Q.R.M.H.L.R.Q.Y.E.[Cha].L}$$$$V2.0
# SMILES: CC[C@H](C)[C@H](NC(=O)[C@H](CC(=O)O)NC(=O)[C@H](CCCNC(=N)N)NC(C)=O)C(=O)N[C@H](C(=O)N[C@@H](CCC(N)=O)C(=O)N[C@@H](CCCNC(=N)N)C(=O)N[C@@H](CCSC)C(=O)N[C@@H](Cc1c[nH]cn1)C(=O)N[C@@H](CC(C)C)C(=O)N[C@@H](CCCNC(=N)N)C(=O)N[C@@H](CCC(N)=O)C(=O)N[C@@H](Cc1ccc(O)cc1)C(=O)N[C@@H](CCC(=O)O)C(=O)N[C@@H](CC1CCCCC1)C(=O)N[C@@H](CC(C)C)C(=O)O)[C@@H](C)CC
# B10: compound 72 (peptide)
# peptide: Ac-NARRIFNDCRDIIQRMHLRQYELL-OH
# B11: compound 82 (peptide)
# peptide: FNDCRDIIQRMHLRQXELL
# HELM: PEPTIDE1{[ac].F.N.D.C.R.D.I.I.Q.R.M.H.L.R.Q.[Cha].E.L.L}$$$$V2.0
# SMILES: CC[C@H](C)[C@H](NC(=O)[C@H](CC(=O)O)NC(=O)[C@H](CCCNC(=N)N)NC(=O)[C@H](CS)NC(=O)[C@H](CC(=O)O)NC(=O)[C@H](CC(N)=O)NC(=O)[C@H](Cc1ccccc1)NC(C)=O)C(=O)N[C@H](C(=O)N[C@@H](CCC(N)=O)C(=O)N[C@@H](CCCNC(=N)N)C(=O)N[C@@H](CCSC)C(=O)N[C@@H](Cc1c[nH]cn1)C(=O)N[C@@H](CC(C)C)C(=O)N[C@@H](CCCNC(=N)N)C(=O)N[C@@H](CCC(N)=O)C(=O)N[C@@H](CC1CCCCC1)C(=O)N[C@@H](CCC(=O)O)C(=O)N[C@@H](CC(C)C)C(=O)N[C@@H](CC(C)C)C(=O)O)[C@@H](C)CC
# B12: compound 5 (peptide)
# peptide: Ac-FNDCRDEIQRKHLRQYELL-OH
# modifications: lactam 7-11
# B13: compound 66 (peptide)
# peptide: QRMHLRQYEXL
# HELM: PEPTIDE1{[ac].Q.R.M.H.L.R.Q.Y.E.[Cha].L}$$$$V2.0
# SMILES: CSCC[C@H](NC(=O)[C@H](CCCNC(=N)N)NC(=O)[C@H](CCC(N)=O)NC(C)=O)C(=O)N[C@@H](Cc1c[nH]cn1)C(=O)N[C@@H](CC(C)C)C(=O)N[C@@H](CCCNC(=N)N)C(=O)N[C@@H](CCC(N)=O)C(=O)N[C@@H](Cc1ccc(O)cc1)C(=O)N[C@@H](CCC(=O)O)C(=O)N[C@@H](CC1CCCCC1)C(=O)N[C@@H](CC(C)C)C(=O)O
# B14: compound 3 (peptide)
# peptide: Ac-FNDCRDEIQRKHLRQYELL-OH
# B15: compound 26 (peptide)
# peptide: Ac-FN[S5]CRD[S5]IQRMHLRQYELL-OH
# modifications: staple 3-7
# SMILES: CC[C@H](C)[C@H](NC(=O)[C@]1(C)CCCC=CCCC[C@](C)(NC(=O)[C@H](CC(N)=O)NC(=O)[C@H](Cc2ccccc2)NC(C)=O)C(=O)N[C@@H](CS)C(=O)N[C@@H](CCCNC(=N)N)C(=O)N[C@@H](CC(=O)O)C(=O)N1)C(=O)N[C@@H](CCC(N)=O)C(=O)N[C@@H](CCCNC(=N)N)C(=O)N[C@@H](CCSC)C(=O)N[C@@H](Cc1c[nH]cn1)C(=O)N[C@@H](CC(C)C)C(=O)N[C@@H](CCCNC(=N)N)C(=O)N[C@@H](CCC(N)=O)C(=O)N[C@@H](Cc1ccc(O)cc1)C(=O)N[C@@H](CCC(=O)O)C(=O)N[C@@H](CC(C)C)C(=O)N[C@@H](CC(C)C)C(=O)O
# Assays:
# Assay in all cases: cell-based or functional assay
# [1] = molecular target: T1, human β2AR (human, UniProt P07550 2-365)
# [2] = molecular target: T1, human β2AR; remark: listed apart in the source
# [3] = molecular target: T1, human β2AR; remark: listed apart in the source
# [4] = molecular target: T1, human β2AR; remark: listed apart in the source
# [5] = molecular target: T1, human β2AR; remark: listed apart in the source
# [6] = molecular target: T1, human β2AR; remark: listed apart in the source
# [7] = molecular target: T1, human β2AR; remark: listed apart in the source
# [8] = molecular target: T1, human β2AR; remark: listed apart in the source
binder,measurement,setting,value
B1,Shift (averaged),[1],3
same,"IC50 (nM) of isoproterenol, [3H]-DHA RLA, peptidomimetic present",[2],270 nM
B2,Shift (averaged),[1],9
same,"IC50 (nM) of isoproterenol, [3H]-DHA RLA, peptidomimetic present",[3],104 nM
same,Shift,[3],8
B3,Shift (averaged),[1],2
same,"IC50 (nM) of isoproterenol, [3H]-DHA RLA, peptidomimetic present",[2],485 nM
same,Shift,[2],1
B4,Shift (averaged),[4],19
same,"IC50 (nM) of isoproterenol, [3H]-DHA RLA, peptidomimetic present",[5],52.6 nM
same,Shift,[5],19
B5,Shift (averaged),[1],4
same,"IC50 (nM) of isoproterenol, [3H]-DHA RLA, peptidomimetic present",[6],202 nM
same,Shift,[6],4
B6,Shift (averaged),[1],2
same,"IC50 (nM) of isoproterenol, [3H]-DHA RLA, peptidomimetic present",[3],417 nM
same,Shift,[3],2
B7,Shift (averaged),[4],12
same,"IC50 (nM) of isoproterenol, [3H]-DHA RLA, peptidomimetic present",[7],66.2 nM
same,Shift,[7],12
B8,Shift (averaged),[1],7
same,"IC50 (nM) of isoproterenol, [3H]-DHA RLA, peptidomimetic present",[2],97.3 nM
same,Shift,[2],7
B9,"IC50 (nM) of isoproterenol, [3H]-DHA RLA, peptidomimetic present",[8],45.4 nM
same,Shift,[8],17
same,Shift (averaged),[4],30
B10,Shift (averaged),[4],47
same,"IC50 (nM) of isoproterenol, [3H]-DHA RLA, peptidomimetic present",[5],22.2 nM
same,Shift,[5],46
B11,Shift (averaged),[4],32
same,"IC50 (nM) of isoproterenol, [3H]-DHA RLA, peptidomimetic present",[7],25.6 nM
same,Shift,[7],32
B12,Shift (averaged),[1],4
same,"IC50 (nM) of isoproterenol, [3H]-DHA RLA, peptidomimetic present",[6],197 nM
same,Shift,[6],4
B13,"IC50 (nM) of isoproterenol, [3H]-DHA RLA, peptidomimetic present",[8],551 nM
same,Shift,[8],1
same,Shift (averaged),[4],2
B14,Shift (averaged),[1],2
same,"IC50 (nM) of isoproterenol, [3H]-DHA RLA, peptidomimetic present",[6],408 nM
same,Shift,[6],2
B15,Shift (averaged),[1],2
same,"IC50 (nM) of isoproterenol, [3H]-DHA RLA, peptidomimetic present",[2],305 nM
same,Shift,[2],2
